US20240091274A1

Target: Human CD52 (human) (UniProt P31358)
Test: cell-based or functional assay

Human CD52 (human), sequence (P31358 25-61 limits assumed): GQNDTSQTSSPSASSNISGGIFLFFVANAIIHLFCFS

## alemtuzumab (antibody)
  CDC killing of human HIP iECs (CD52) with ABO-matched allogeneic serum (XCelligence): 0.001 µg/ml
  CDC killing of mouse B6 HIP iECs (CD52) with syngeneic B6 serum (XCelligence): 0.0001 µg/mL
